# Reference: article doi:10.1101/209445, “Large conformational changes in FtsH create an opening for substrate entry” (bioRxiv, 2017)
# B1: Full-length Aquifex aeolicus FtsH (enzyme, UniProt O67077 1-634, looked up)
# chain: MNALKNFFIWAIIIGAAIVAFNLFEGKREFTTKVSLNEVVKLVEEGKVSYAEVRGNTAIIQTKDGQKLEVTLPPNTNLVDKMVEKGVRVEVANPEPPGGWLVNVFLSWLPILFFIGIWIFLLRQMSGGGNVNRAFNFGKSRAKVYIEEKPKVTFKDVAGIEEVKEEVKEIIEYLKDPVKFQKLGGRPPKGVLLYGEPGVGKTLLAKAIAGEAHVPFISVSGSDFVEMFVGVGAARVRDLFETAKKHAPCIIFIDEIDAVGRARGAIPVGGGHDEREQTLNQLLVEMDGFDTSDGIIVIAATNRPDILDPALLRPGRFDRQIFIPKPDVRGRYEILKVHARNKKLAKDVDLEFVARATPGFTGADLENLLNEAALLAARKGKEEITMEEIEEALDRITMGLERKGMTISPKEKEKIAIHEAGHALMGLVSDDDDKVHKISIIPRGMALGVTQQLPIEDKHIYDKKDLYNKILVLLGGRAAEEVFFGKDGITTGAENDLQRATDLAYRMVSMWGMSDKVGPIAIRRVANPFLGGMTTAVDTSPDLLREIDEEVKRIITEQYEKAKAIVEEYKEPLKAVVKKLLEKETITCEEFVEVFKLYGIELKDKCKKEELFDKDRKSEENKELKSEEVKEEVV
# notes: The protomer is the molecule; The construct came from U. Baumann; also called AaFtsH; LMNG-AaFtsH; source: E. coli, overexpressed (pET22a); extracted from purified membranes with LMNG; purified (Ni-NTA/HisTrap, SEC Superose 6)
# Legend:
# [1] = biological target: the molecule itself; assay: negative-stain electron microscopy; SEC peak 1 (dodecamer fraction), 3% uranyl acetate; 15000 particles, 2D class averages; 3D map with no symmetry imposed, 25 Å; two hexamers in a single LMNG micelle
# [2] = biological target: the molecule itself; assay: native gel or EMSA; Native PAGE (Mini-PROTEAN TGX precast gel) of SEC peak 2 (13.4 mL)
protein,measurement,setting,value
B1,stoichiometry N,[1],12
same,stoichiometry N,[2],6
